From patent US20230295293A1 (published 2023) come the findings set out here.

Where only a bound is given, the exact number is not on record here.

For assay [1], the target named is T1, Human FRα ECD-Avi-His (human, biotin on the Avi-tag (BirA) in the HTRF assays).
T1 construct: also called biotinylated human FRα; folate receptor alpha
In words: MOv19 HTRF epitope competition assay, geomean; IgG kept 2 weeks at 4°C; competitor MOv19. (TR-FRET usually uses a lanthanide donor and a delayed reading to cut background.)

The target of assay [2] is T1, Human FRα ECD-Avi-His. In words: MOv19 HTRF epitope competition assay, geomean; IgG kept 2 weeks at 45°C; competitor MOv19.
Assay [3] concerns the target T1, Human FRα ECD-Avi-His. The assay can be described thus: HTRF epitope competition assay, geomean n>2; competitor DyLight 650 labelled Comparator Antibody 3. Here is the method: (§1) HTRF assays were performed in 384-well white shallow well non-binding plates (Corning, 4513) in assay buffer containing phosphate-buffered saline (PBS) (Life Technologies, 14190), 0.100 v/v bovine serum albumin (BSA) (Sigma, A9576), and 0.4 M potassium fluoride (VWR International, 26820).
(§2) HTRF epitope competition assays were set up using a titration of test IgG, 1 nM streptavidin cryptate, biotinylated human FRα and DyLight 650 labelled IgG to assay volume of 10 μl. […] Assay plates were incubated for 3-4 h at room temperature prior to fluorescence measurement.

Assay [4] addresses T1, Human FRα ECD-Avi-His. The assay can be described thus: SPR (Biacore T200, 25°C); antibody captured on Protein A, FRα ECD as analyte. Here is the method:
(§3) Protein A was covalently immobilised to a CM5 chip surface using standard amine coupling techniques at a concentration of 50 μg/ml in 10 mM Sodium acetate, pH 4.0. The antibody was captured onto the Protein A surface in HBS-EP+ buffer, pH 7.4 at 10 μl/min to enable FRα ECD binding. The FRα ECD was serially diluted (0.4 nM-100 nM human FRα ECD; 0.8 nM-200 nM cyno FRα ECD; 30 nM-4000 nM mouse FRα ECD and rat FRα ECD) in HBS-EP+ buffer, pH 7.4 and flowed over the chip at 50 μl/min, with 2 minutes association and 8 minutes dissociation. The chip surface was fully regenerated with pulses of 3 M MgCl₂ to remove captured antibody together with any bound FRα ECD. Multiple buffer-only injections were made under the same conditions to allow for double reference subtraction of the final sensorgram sets, which were analysed using Biacore T200 Evaluation Software to derive equilibrium dissociation constants.
In general terms: Surface plasmon resonance follows binding to a sensor surface in real time, without labels.

The target of assay [5] is T2, Cyno FRα ECD-Avi-His (cynomolgus monkey, biotin on the Avi-tag (BirA) in the HTRF assays).
T2 construct: Soluble region with C-terminal Avi and His tags
T2 sequence (chain, as listed by the source limits assumed): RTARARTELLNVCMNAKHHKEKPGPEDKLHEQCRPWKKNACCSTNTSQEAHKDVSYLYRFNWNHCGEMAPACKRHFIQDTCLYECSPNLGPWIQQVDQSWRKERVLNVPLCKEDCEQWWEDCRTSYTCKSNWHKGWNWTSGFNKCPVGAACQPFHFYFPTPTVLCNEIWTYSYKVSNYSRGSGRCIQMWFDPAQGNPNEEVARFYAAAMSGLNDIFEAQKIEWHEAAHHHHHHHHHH
The description is as above. Here is the method: as §3

In assay [6] the target is T1, Human FRα ECD-Avi-His. In words: HTRF epitope competition assay, geomean n>2; competitor DyLight 650 labelled Comparator Antibody 2. Here is the method: as §1, §2
Assay [7] has as its target T1, Human FRα ECD-Avi-His. The assay can be described thus: MOv19 HTRF epitope competition assay; accelerated stability study.
For assay [8], the target named is T2, Cyno FRα ECD-Avi-His. In words: SPR (Biacore T200). Here is the method: as §3

T1 sequence (chain, as listed by the source limits assumed): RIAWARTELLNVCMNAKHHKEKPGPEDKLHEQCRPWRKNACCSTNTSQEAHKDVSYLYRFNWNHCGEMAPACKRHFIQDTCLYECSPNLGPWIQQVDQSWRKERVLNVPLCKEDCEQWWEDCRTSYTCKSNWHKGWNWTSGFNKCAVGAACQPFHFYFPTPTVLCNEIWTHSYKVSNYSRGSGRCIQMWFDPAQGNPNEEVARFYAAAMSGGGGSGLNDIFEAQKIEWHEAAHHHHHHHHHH

B1: AB1370035 hIgG1 (antibody, V domains shown)
VH: QVQLQQSGPGLVKPSQTLSLTCAISGDSVSSNSAAWNWIRQSPSRGLEWLGRTYYRSNWYNDYTLSVKSRITVNPDTSKNQFSLQLNSVTPEDTAVYYCVRGVGRFDSWGQGTLVTVSS
VL: DIQMTQSPSTLSASVGDRVIITCRASQSISSWLAWYQQKPGKAPKLLIYKASSLESGVPSRFSGSGSGTEFTLTITSLQPDDFASYYCQEYKTYSIFTFGPGTKVDIKR
Broadly, the IC50 is the concentration at which inhibition is half-maximal. The low end stands for higher potency, the high end for lower potency. Broadly, the Kd is a measure of binding affinity in units of concentration. Usually koff stands for the first-order rate constant of dissociation. Low values mean slow dissociation, high ones fast dissociation. The term kon denotes the rate constant with which the complex forms. Lower therefore signals slow association. For B1, the IC50 in assay [1] was 0.945 nM; in assay [2] it was 1.16 nM; in assay [3] it was 0.285 nM; in assay [6], 1.46 nM. In addition, the figures for the Kd in assay [4] and in assay [5] were 0.93 nM and 1.1 nM, respectively. Also, the koff turned out to be 0.000527 s⁻¹ in assay [4] and 0.000508 s⁻¹ in assay [5]. Moreover, the kon in assay [4] was 568000 M⁻¹ s⁻¹; in assay [5], 475000 M⁻¹ s⁻¹. The “fold difference (IC50 45°C against 4°C)” value in assay [7] amounted to 1.23 fold. Also, the “fold difference of affinity, cyno FRα against human FRα” value in assay [8] is at most 2.5 fold.

B2: AB1370117 hIgG1 (antibody, V domains shown)
VH: QVQLQQSGPGLVKPSQTLSLTCAISGDSVSSDSATWNWIRQSPSRGLEWLGRTYYRSKWYSDYAVSVKSRITINPDTSKNQFSLQLNSVTPEDTAVYFCARGGAPFDYWGQGTLVTVSS
VL: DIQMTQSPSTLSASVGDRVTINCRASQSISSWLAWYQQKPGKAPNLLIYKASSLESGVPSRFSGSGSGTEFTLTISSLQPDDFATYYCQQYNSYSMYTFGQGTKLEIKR
Turning to B2, the IC50 in assay [1] stood at 3.75 nM; in assay [2], 5.48 nM; in assay [3], 1.83 nM; in assay [6] it was 9.33 nM. Also, the values for the Kd in assay [4] and in assay [5] were 2.6 nM and 5.1 nM, respectively. In addition, the koff in assay [4] came to 0.000762 s⁻¹; in assay [5] it was 0.00187 s⁻¹. For the same molecule, the kon in assay [4] turned out to be 293000 M⁻¹ s⁻¹; in assay [5] it was 364000 M⁻¹ s⁻¹. Further, in assay [7], the “fold difference (IC50 45°C against 4°C)” value was determined as 1.46 fold. Also, the “fold difference of affinity, cyno FRα against human FRα” value in assay [8] was at most 2.5 fold.
